# Source: the MegaScale stability set (Tsuboyama et al. 2023)
# B1: r11_951_TrROS_Hall (parent)
# chain: KKKYVIKVYFEDTGKEVEIEAESKEEALEAAKRLAEELGLKIKKVEIYP
# Variants of: B1
# Assay: folding stability dG (cDNA display proteolysis); higher = more stable
# Conditions: PBS, room temperature
row,Variant,folding stability dG [kcal/mol]
1,KKKYVIKVYFEDTGKEVEIEAESKEEALEAAKRLAPELGLKIKKVEIYP,3.05
2,KKKYVIKVYFEDTGKEVEIEAESKEEALEAAKRLAQELGLKIKKVEIYP,4.66
3,KKKYVIKVYFEDTGKEVEIEAESKEEALEAAKRLARELGLKIKKVEIYP,4.91
4,KKKYVIKVYFEDTGKEVEIEAESKEEALEAAKRLASELGLKIKKVEIYP,4.53
5,KKKYVIKVYFEDTGKEVEIEAESKEEALEAAKRLATELGLKIKKVEIYP,4.6
6,KKKYVIKVYFEDTGKEVEIEAESKEEALEAAKRLAVELGLKIKKVEIYP,4.66
7,KKKYVIKVYFEDTGKEVEIEAESKEEALEAAKRLAEALGLKIKKVEIYP,4.67
8,KKKYVIKVYFEDTGKEVEIEAESKEEALEAAKRLAECLGLKIKKVEIYP,4.94
9,KKKYVIKVYFEDTGKEVEIEAESKEEALEAAKRLAEDLGLKIKKVEIYP,4.29
10,KKKYVIKVYFEDTGKEVEIEAESKEEALEAAKRLAEFLGLKIKKVEIYP,4.73
11,KKKYVIKVYFEDTGKEVEIEAESKEEALEAAKRLAEGLGLKIKKVEIYP,4.55
12,KKKYVIKVYFEDTGKEVEIEAESKEEALEAAKRLAEHLGLKIKKVEIYP,4.72
13,KKKYVIKVYFEDTGKEVEIEAESKEEALEAAKRLAEILGLKIKKVEIYP,4.61
14,KKKYVIKVYFEDTGKEVEIEAESKEEALEAAKRLAEKLGLKIKKVEIYP,4.68
15,KKKYVIKVYFEDTGKEVEIEAESKEEALEAAKRLAELLGLKIKKVEIYP,4.55
16,KKKYVIKVYFEDTGKEVEIEAESKEEALEAAKRLAEMLGLKIKKVEIYP,4.67
17,KKKYVIKVYFEDTGKEVEIEAESKEEALEAAKRLAENLGLKIKKVEIYP,4.42
18,KKKYVIKVYFEDTGKEVEIEAESKEEALEAAKRLAEPLGLKIKKVEIYP,2.86
19,KKKYVIKVYFEDTGKEVEIEAESKEEALEAAKRLAEQLGLKIKKVEIYP,4.77
20,KKKYVIKVYFEDTGKEVEIEAESKEEALEAAKRLAERLGLKIKKVEIYP,4.69
21,KKKYVIKVYFEDTGKEVEIEAESKEEALEAAKRLAESLGLKIKKVEIYP,4.71
22,KKKYVIKVYFEDTGKEVEIEAESKEEALEAAKRLAETLGLKIKKVEIYP,4.61

row,Variant,folding stability dG [kcal/mol]
1,KKKYVIKVYFEDTGKEVEIEAESKEEALEAAKRLAEVLGLKIKKVEIYP,4.6
2,KKKYVIKVYFEDTGKEVEIEAESKEEALEAAKRLAEYLGLKIKKVEIYP,4.82
3,KKKYVIKVYFEDTGKEVEIEAESKEEALEAAKRLAEEAGLKIKKVEIYP,4.52
4,KKKYVIKVYFEDTGKEVEIEAESKEEALEAAKRLAEECGLKIKKVEIYP,4.07
5,KKKYVIKVYFEDTGKEVEIEAESKEEALEAAKRLAEEDGLKIKKVEIYP,3.39
6,KKKYVIKVYFEDTGKEVEIEAESKEEALEAAKRLAEEEGLKIKKVEIYP,3.89
7,KKKYVIKVYFEDTGKEVEIEAESKEEALEAAKRLAEEFGLKIKKVEIYP,4.42
8,KKKYVIKVYFEDTGKEVEIEAESKEEALEAAKRLAEEGGLKIKKVEIYP,3.85
9,KKKYVIKVYFEDTGKEVEIEAESKEEALEAAKRLAEEHGLKIKKVEIYP,4.13
10,KKKYVIKVYFEDTGKEVEIEAESKEEALEAAKRLAEEIGLKIKKVEIYP,4.29
11,KKKYVIKVYFEDTGKEVEIEAESKEEALEAAKRLAEEKGLKIKKVEIYP,4.2
12,KKKYVIKVYFEDTGKEVEIEAESKEEALEAAKRLAEEMGLKIKKVEIYP,4.56
13,KKKYVIKVYFEDTGKEVEIEAESKEEALEAAKRLAEENGLKIKKVEIYP,4.15
14,KKKYVIKVYFEDTGKEVEIEAESKEEALEAAKRLAEEPGLKIKKVEIYP,2.86
15,KKKYVIKVYFEDTGKEVEIEAESKEEALEAAKRLAEEQGLKIKKVEIYP,4.21
16,KKKYVIKVYFEDTGKEVEIEAESKEEALEAAKRLAEERGLKIKKVEIYP,4.34
17,KKKYVIKVYFEDTGKEVEIEAESKEEALEAAKRLAEESGLKIKKVEIYP,4.28
18,KKKYVIKVYFEDTGKEVEIEAESKEEALEAAKRLAEETGLKIKKVEIYP,4.16
19,KKKYVIKVYFEDTGKEVEIEAESKEEALEAAKRLAEEVGLKIKKVEIYP,4.3
20,KKKYVIKVYFEDTGKEVEIEAESKEEALEAAKRLAEEWGLKIKKVEIYP,4.52
21,KKKYVIKVYFEDTGKEVEIEAESKEEALEAAKRLAEEYGLKIKKVEIYP,4.53
22,KKKYVIKVYFEDTGKEVEIEAESKEEALEAAKRLAEELALKIKKVEIYP,4.49

row,Variant,folding stability dG [kcal/mol]
1,KKKYVIKVYFEDTGKEVEIEAESKEEALEAAKRLAEELCLKIKKVEIYP,4.25
2,KKKYVIKVYFEDTGKEVEIEAESKEEALEAAKRLAEELDLKIKKVEIYP,3.99
3,KKKYVIKVYFEDTGKEVEIEAESKEEALEAAKRLAEELELKIKKVEIYP,4.18
4,KKKYVIKVYFEDTGKEVEIEAESKEEALEAAKRLAEELFLKIKKVEIYP,4.14
5,KKKYVIKVYFEDTGKEVEIEAESKEEALEAAKRLAEELHLKIKKVEIYP,4.31
6,KKKYVIKVYFEDTGKEVEIEAESKEEALEAAKRLAEELILKIKKVEIYP,3.67
7,KKKYVIKVYFEDTGKEVEIEAESKEEALEAAKRLAEELKLKIKKVEIYP,4.53
8,KKKYVIKVYFEDTGKEVEIEAESKEEALEAAKRLAEELLLKIKKVEIYP,4.06
9,KKKYVIKVYFEDTGKEVEIEAESKEEALEAAKRLAEELMLKIKKVEIYP,4.38
10,KKKYVIKVYFEDTGKEVEIEAESKEEALEAAKRLAEELNLKIKKVEIYP,4.39
11,KKKYVIKVYFEDTGKEVEIEAESKEEALEAAKRLAEELPLKIKKVEIYP,2.73
12,KKKYVIKVYFEDTGKEVEIEAESKEEALEAAKRLAEELQLKIKKVEIYP,4.37
13,KKKYVIKVYFEDTGKEVEIEAESKEEALEAAKRLAEELRLKIKKVEIYP,4.43
14,KKKYVIKVYFEDTGKEVEIEAESKEEALEAAKRLAEELSLKIKKVEIYP,4.26
15,KKKYVIKVYFEDTGKEVEIEAESKEEALEAAKRLAEELTLKIKKVEIYP,4
16,KKKYVIKVYFEDTGKEVEIEAESKEEALEAAKRLAEELVLKIKKVEIYP,4.03
17,KKKYVIKVYFEDTGKEVEIEAESKEEALEAAKRLAEELWLKIKKVEIYP,3.5
18,KKKYVIKVYFEDTGKEVEIEAESKEEALEAAKRLAEELYLKIKKVEIYP,3.82
19,KKKYVIKVYFEDTGKEVEIEAESKEEALEAAKRLAEELGAKIKKVEIYP,4.02
20,KKKYVIKVYFEDTGKEVEIEAESKEEALEAAKRLAEELGCKIKKVEIYP,3.95
21,KKKYVIKVYFEDTGKEVEIEAESKEEALEAAKRLAEELGDKIKKVEIYP,3.85
22,KKKYVIKVYFEDTGKEVEIEAESKEEALEAAKRLAEELGEKIKKVEIYP,3.99

row,Variant,folding stability dG [kcal/mol]
1,KKKYVIKVYFEDTGKEVEIEAESKEEALEAAKRLAEELGFKIKKVEIYP,4.6
2,KKKYVIKVYFEDTGKEVEIEAESKEEALEAAKRLAEELGGKIKKVEIYP,3.56
3,KKKYVIKVYFEDTGKEVEIEAESKEEALEAAKRLAEELGHKIKKVEIYP,4.12
4,KKKYVIKVYFEDTGKEVEIEAESKEEALEAAKRLAEELGIKIKKVEIYP,3.96
5,KKKYVIKVYFEDTGKEVEIEAESKEEALEAAKRLAEELGKKIKKVEIYP,3.93
6,KKKYVIKVYFEDTGKEVEIEAESKEEALEAAKRLAEELGMKIKKVEIYP,4.31
7,KKKYVIKVYFEDTGKEVEIEAESKEEALEAAKRLAEELGNKIKKVEIYP,3.66
8,KKKYVIKVYFEDTGKEVEIEAESKEEALEAAKRLAEELGPKIKKVEIYP,3.02
9,KKKYVIKVYFEDTGKEVEIEAESKEEALEAAKRLAEELGQKIKKVEIYP,4.07
10,KKKYVIKVYFEDTGKEVEIEAESKEEALEAAKRLAEELGRKIKKVEIYP,4.27
11,KKKYVIKVYFEDTGKEVEIEAESKEEALEAAKRLAEELGSKIKKVEIYP,3.9
12,KKKYVIKVYFEDTGKEVEIEAESKEEALEAAKRLAEELGTKIKKVEIYP,3.92
13,KKKYVIKVYFEDTGKEVEIEAESKEEALEAAKRLAEELGVKIKKVEIYP,4.1
14,KKKYVIKVYFEDTGKEVEIEAESKEEALEAAKRLAEELGWKIKKVEIYP,4.72
15,KKKYVIKVYFEDTGKEVEIEAESKEEALEAAKRLAEELGYKIKKVEIYP,4.88
16,KKKYVIKVYFEDTGKEVEIEAESKEEALEAAKRLAEELGLAIKKVEIYP,4.33
17,KKKYVIKVYFEDTGKEVEIEAESKEEALEAAKRLAEELGLCIKKVEIYP,4.33
18,KKKYVIKVYFEDTGKEVEIEAESKEEALEAAKRLAEELGLDIKKVEIYP,4
19,KKKYVIKVYFEDTGKEVEIEAESKEEALEAAKRLAEELGLEIKKVEIYP,4.16
20,KKKYVIKVYFEDTGKEVEIEAESKEEALEAAKRLAEELGLFIKKVEIYP,4.44
21,KKKYVIKVYFEDTGKEVEIEAESKEEALEAAKRLAEELGLGIKKVEIYP,4.07
22,KKKYVIKVYFEDTGKEVEIEAESKEEALEAAKRLAEELGLHIKKVEIYP,4.22

row,Variant,folding stability dG [kcal/mol]
1,KKKYVIKVYFEDTGKEVEIEAESKEEALEAAKRLAEELGLIIKKVEIYP,4.19
2,KKKYVIKVYFEDTGKEVEIEAESKEEALEAAKRLAEELGLLIKKVEIYP,4.36
3,KKKYVIKVYFEDTGKEVEIEAESKEEALEAAKRLAEELGLMIKKVEIYP,4.38
4,KKKYVIKVYFEDTGKEVEIEAESKEEALEAAKRLAEELGLNIKKVEIYP,4.28
5,KKKYVIKVYFEDTGKEVEIEAESKEEALEAAKRLAEELGLPIKKVEIYP,4.25
6,KKKYVIKVYFEDTGKEVEIEAESKEEALEAAKRLAEELGLQIKKVEIYP,4.02
7,KKKYVIKVYFEDTGKEVEIEAESKEEALEAAKRLAEELGLRIKKVEIYP,4.62
8,KKKYVIKVYFEDTGKEVEIEAESKEEALEAAKRLAEELGLSIKKVEIYP,4.41
9,KKKYVIKVYFEDTGKEVEIEAESKEEALEAAKRLAEELGLTIKKVEIYP,4.32
10,KKKYVIKVYFEDTGKEVEIEAESKEEALEAAKRLAEELGLVIKKVEIYP,4.34
11,KKKYVIKVYFEDTGKEVEIEAESKEEALEAAKRLAEELGLWIKKVEIYP,4.11
12,KKKYVIKVYFEDTGKEVEIEAESKEEALEAAKRLAEELGLYIKKVEIYP,4.5
13,KKKYVIKVYFEDTGKEVEIEAESKEEALEAAKRLAEELGLKAKKVEIYP,3.21
14,KKKYVIKVYFEDTGKEVEIEAESKEEALEAAKRLAEELGLKCKKVEIYP,3.57
15,KKKYVIKVYFEDTGKEVEIEAESKEEALEAAKRLAEELGLKDKKVEIYP,2.38
16,KKKYVIKVYFEDTGKEVEIEAESKEEALEAAKRLAEELGLKEKKVEIYP,2.5
17,KKKYVIKVYFEDTGKEVEIEAESKEEALEAAKRLAEELGLKFKKVEIYP,4.01
18,KKKYVIKVYFEDTGKEVEIEAESKEEALEAAKRLAEELGLKGKKVEIYP,2.51
